Laboratory results published in patent US20210238260.

Legend:
[1] = target: plasma purified human AT-III (antithrombin III); assay: AT-III/UFH inhibition K0.5, ratio to Catalyst Biosciences WT FIXa
[2] = target: plasma purified human antithrombin III (AT-III), as complex with unfractionated heparin; assay: ratio of K0.5 to Catalyst Biosciences WT FIXa, AT-III/UFH inhibition

Sequence of Factor X, P00742 (P00742 whole entry, looked up): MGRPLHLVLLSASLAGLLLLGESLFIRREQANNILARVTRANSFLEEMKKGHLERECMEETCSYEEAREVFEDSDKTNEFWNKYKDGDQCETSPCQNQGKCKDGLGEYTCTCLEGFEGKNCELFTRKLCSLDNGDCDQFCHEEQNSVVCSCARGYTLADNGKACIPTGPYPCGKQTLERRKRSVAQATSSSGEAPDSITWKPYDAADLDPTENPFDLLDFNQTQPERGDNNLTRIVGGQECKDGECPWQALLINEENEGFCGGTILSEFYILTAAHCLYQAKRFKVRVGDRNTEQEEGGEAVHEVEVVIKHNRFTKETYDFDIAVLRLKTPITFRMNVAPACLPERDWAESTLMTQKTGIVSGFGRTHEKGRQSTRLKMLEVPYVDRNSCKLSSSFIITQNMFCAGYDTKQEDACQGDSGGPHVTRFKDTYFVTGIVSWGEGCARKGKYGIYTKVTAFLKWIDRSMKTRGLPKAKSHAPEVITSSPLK
Sequence of Factor X (FX), P00742 (P00742 whole entry, looked up): as above

B1: FIXa-I251S/R318Y/R338E/E410N (protein)
chain 1: YNSGKLEEFVQGNLERECMEEKCSFEEAREVFENTERTTEFWKQYVDGDQCESNPCLNGGSCKDDINSYECWCPFGFEGKNCELDVTCNIKNGRCEQFCKNSADNKVVCSCTEGYRLAENQKSCEPAVPFPCGRVSVSQTSKLTR
chain 2: VVGGEDAKPGQFPWQVVLNGKVDAFCGGSIVNEKWIVTAAHCVETGVKITVVAGEHNIEETEHTEQKRNVSRIIPHHNYNAAINKYNHDIALLELDEPLVLNSYVTPICIADKEYTNIFLKFGSGYVSGWGRVFHKGYSALVLQYLRVPLVDRATCLESTKFTIYNNMFCAGFHEGGRDSCQGDSGGPHVTEVEGTSFLTGIISWGEECAMKGKYGIYTKVSRYVNWIKNKTKLT
- K0.5-mut/K0.5-wt [1]: 303
- % of WT kcat/KM (Factor X (FX), P00742): 849%
- kcat (Factor X (FX), P00742): 6.2 s⁻¹
- kcat/KM (Factor X (FX), P00742): 3.9e+08 M⁻¹ s⁻¹
- % of WT kcat/KM (Factor X, P00742): 851%
- KM (Factor X, P00742): 0.0162 µM
- kcat/KM (Factor X, P00742): 3.8e+08 M⁻¹ s⁻¹
- K0.5-mut/K0.5-wt [2]: 303

B2: FIXa-K247N/N249S/R318Y/R338E/R403E/E410N (protein)
chain 1: YNSGKLEEFVQGNLERECMEEKCSFEEAREVFENTERTTEFWKQYVDGDQCESNPCLNGGSCKDDINSYECWCPFGFEGKNCELDVTCNIKNGRCEQFCKNSADNKVVCSCTEGYRLAENQKSCEPAVPFPCGRVSVSQTSKLTR
chain 2: VVGGEDAKPGQFPWQVVLNGKVDAFCGGSIVNEKWIVTAAHCVETGVKITVVAGEHNIEETEHTEQNRSVIRIIPHHNYNAAINKYNHDIALLELDEPLVLNSYVTPICIADKEYTNIFLKFGSGYVSGWGRVFHKGYSALVLQYLRVPLVDRATCLESTKFTIYNNMFCAGFHEGGRDSCQGDSGGPHVTEVEGTSFLTGIISWGEECAMKGKYGIYTKVSEYVNWIKNKTKLT
- K0.5-mut/K0.5-wt [1]: 418
- % of WT kcat/KM (Factor X (FX), P00742): 331%
- kcat (Factor X (FX), P00742): 5.8 s⁻¹
- kcat/KM (Factor X (FX), P00742): 1.5e+08 M⁻¹ s⁻¹
- % of WT kcat/KM (Factor X, P00742): 341%
- KM (Factor X, P00742): 0.0392 µM
- kcat/KM (Factor X, P00742): 1.5e+08 M⁻¹ s⁻¹
- K0.5-mut/K0.5-wt [2]: 418

B3: FIXa-A103N/N105S/K247N/N249S/R318Y/R338E/R403E/E410N (protein)
chain 1: YNSGKLEEFVQGNLERECMEEKCSFEEAREVFENTERTTEFWKQYVDGDQCESNPCLNGGSCKDDINSYECWCPFGFEGKNCELDVTCNIKNGRCEQFCKNSNDSKVVCSCTEGYRLAENQKSCEPAVPFPCGRVSVSQTSKLTR
chain 2: VVGGEDAKPGQFPWQVVLNGKVDAFCGGSIVNEKWIVTAAHCVETGVKITVVAGEHNIEETEHTEQNRSVIRIIPHHNYNAAINKYNHDIALLELDEPLVLNSYVTPICIADKEYTNIFLKFGSGYVSGWGRVFHKGYSALVLQYLRVPLVDRATCLESTKFTIYNNMFCAGFHEGGRDSCQGDSGGPHVTEVEGTSFLTGIISWGEECAMKGKYGIYTKVSEYVNWIKNKTKLT
- K0.5-mut/K0.5-wt [1]: 129
- % of WT kcat/KM (Factor X (FX), P00742): 324%
- kcat (Factor X (FX), P00742): 4.1 s⁻¹
- kcat/KM (Factor X (FX), P00742): 1.5e+08 M⁻¹ s⁻¹
- % of WT kcat/KM (Factor X, P00742): 232%
- KM (Factor X, P00742): 0.0397 µM
- kcat/KM (Factor X, P00742): 1e+08 M⁻¹ s⁻¹
- K0.5-mut/K0.5-wt [2]: 129

B4: FIXa-K247N/N249S/R318Y/R338E/E410N (protein)
chain 1: YNSGKLEEFVQGNLERECMEEKCSFEEAREVFENTERTTEFWKQYVDGDQCESNPCLNGGSCKDDINSYECWCPFGFEGKNCELDVTCNIKNGRCEQFCKNSADNKVVCSCTEGYRLAENQKSCEPAVPFPCGRVSVSQTSKLTR
chain 2: VVGGEDAKPGQFPWQVVLNGKVDAFCGGSIVNEKWIVTAAHCVETGVKITVVAGEHNIEETEHTEQNRSVIRIIPHHNYNAAINKYNHDIALLELDEPLVLNSYVTPICIADKEYTNIFLKFGSGYVSGWGRVFHKGYSALVLQYLRVPLVDRATCLESTKFTIYNNMFCAGFHEGGRDSCQGDSGGPHVTEVEGTSFLTGIISWGEECAMKGKYGIYTKVSRYVNWIKNKTKLT
- K0.5-mut/K0.5-wt [1]: 78.3
- % of WT kcat/KM (Factor X (FX), P00742): 501%
- kcat (Factor X (FX), P00742): 3.8 s⁻¹
- kcat/KM (Factor X (FX), P00742): 2.3e+08 M⁻¹ s⁻¹
- % of WT kcat/KM (Factor X, P00742): 516%
- KM (Factor X, P00742): 0.0166 µM
- kcat/KM (Factor X, P00742): 2.3e+08 M⁻¹ s⁻¹
- K0.5-mut/K0.5-wt [2]: 78.3

B5: FIXa-Y155F/K247N/N249S/R318Y/R338E/E410N (protein)
chain 1: YNSGKLEEFVQGNLERECMEEKCSFEEAREVFENTERTTEFWKQYVDGDQCESNPCLNGGSCKDDINSYECWCPFGFEGKNCELDVTCNIKNGRCEQFCKNSADNKVVCSCTEGYRLAENQKSCEPAVPFPCGRVSVSQTSKLTR
chain 2: VVGGEDAKPGQFPWQVVLNGKVDAFCGGSIVNEKWIVTAAHCVETGVKITVVAGEHNIEETEHTEQNRSVIRIIPHHNYNAAINKYNHDIALLELDEPLVLNSYVTPICIADKEYTNIFLKFGSGYVSGWGRVFHKGYSALVLQYLRVPLVDRATCLESTKFTIYNNMFCAGFHEGGRDSCQGDSGGPHVTEVEGTSFLTGIISWGEECAMKGKYGIYTKVSRYVNWIKNKTKLT
- K0.5-mut/K0.5-wt [1]: 200
- % of WT kcat/KM (Factor X (FX), P00742): 717%
- kcat (Factor X (FX), P00742): 4.3 s⁻¹
- kcat/KM (Factor X (FX), P00742): 3.3e+08 M⁻¹ s⁻¹
- % of WT kcat/KM (Factor X, P00742): 674%
- KM (Factor X, P00742): 0.0153 µM
- kcat/KM (Factor X, P00742): 3e+08 M⁻¹ s⁻¹
- K0.5-mut/K0.5-wt [2]: 200

B6: FIXa-D104N/K106S/Y155F/K228N/K247N/N249S (protein)
chain 1: YNSGKLEEFVQGNLERECMEEKCSFEEAREVFENTERTTEFWKQYVDGDQCESNPCLNGGSCKDDINSYECWCPFGFEGKNCELDVTCNIKNGRCEQFCKNSANNSVVCSCTEGYRLAENQKSCEPAVPFPCGRVSVSQTSKLTR
chain 2: VVGGEDAKPGQFPWQVVLNGKVDAFCGGSIVNEKWIVTAAHCVETGVNITVVAGEHNIEETEHTEQNRSVIRIIPHHNYNAAINKYNHDIALLELDEPLVLNSYVTPICIADKEYTNIFLKFGSGYVSGWGRVFHKGRSALVLQYLRVPLVDRATCLRSTKFTIYNNMFCAGFHEGGRDSCQGDSGGPHVTEVEGTSFLTGIISWGEECAMKGKYGIYTKVSRYVNWIKEKTKLT
- K0.5-mut/K0.5-wt [1]: 1.6
- % of WT kcat/KM (Factor X (FX), P00742): 137%
- kcat (Factor X (FX), P00742): 4.7 s⁻¹
- kcat of FX activation by FIXa (Xase complex with FVIIIa, PC/PS vesicles, Ca2+) (Factor X (FX), P00742): 4.7 s⁻¹
- kcat/KM (Factor X (FX), P00742): 6.3e+07 M⁻¹ s⁻¹
- % of WT kcat/KM (Factor X, P00742): 142%
- KM (Factor X, P00742): 0.0753 µM
- kcat/KM (Factor X, P00742): 6.3e+07 M⁻¹ s⁻¹
- K0.5-mut/K0.5-wt [2]: 1.6

B7: FIXa-Y155F/K228N/K247N/N249S (protein)
chain 1: YNSGKLEEFVQGNLERECMEEKCSFEEAREVFENTERTTEFWKQYVDGDQCESNPCLNGGSCKDDINSYECWCPFGFEGKNCELDVTCNIKNGRCEQFCKNSADNKVVCSCTEGYRLAENQKSCEPAVPFPCGRVSVSQTSKLTR
chain 2: VVGGEDAKPGQFPWQVVLNGKVDAFCGGSIVNEKWIVTAAHCVETGVNITVVAGEHNIEETEHTEQNRSVIRIIPHHNYNAAINKYNHDIALLELDEPLVLNSYVTPICIADKEYTNIFLKFGSGYVSGWGRVFHKGRSALVLQYLRVPLVDRATCLRSTKFTIYNNMFCAGFHEGGRDSCQGDSGGPHVTEVEGTSFLTGIISWGEECAMKGKYGIYTKVSRYVNWIKEKTKLT
- K0.5-mut/K0.5-wt [1]: 1.4
- KM (Factor X (FX), P00742): 0.0792 µM
- kcat of FX activation by FIXa (Xase complex with FVIIIa, PC/PS vesicles, Ca2+) (Factor X (FX), P00742): 4.3 s⁻¹
- % of WT kcat/KM (Factor X, P00742): 118%
- kcat (Factor X, P00742): 4.3 s⁻¹
- kcat/KM (Factor X, P00742): 5.3e+07 M⁻¹ s⁻¹
- K0.5-mut/K0.5-wt [2]: 1.4

B8: FIXa-K228N/K247N/N249S (protein)
chain 1: YNSGKLEEFVQGNLERECMEEKCSFEEAREVFENTERTTEFWKQYVDGDQCESNPCLNGGSCKDDINSYECWCPFGFEGKNCELDVTCNIKNGRCEQFCKNSADNKVVCSCTEGYRLAENQKSCEPAVPFPCGRVSVSQTSKLTR
chain 2: VVGGEDAKPGQFPWQVVLNGKVDAFCGGSIVNEKWIVTAAHCVETGVNITVVAGEHNIEETEHTEQNRSVIRIIPHHNYNAAINKYNHDIALLELDEPLVLNSYVTPICIADKEYTNIFLKFGSGYVSGWGRVFHKGRSALVLQYLRVPLVDRATCLRSTKFTIYNNMFCAGFHEGGRDSCQGDSGGPHVTEVEGTSFLTGIISWGEECAMKGKYGIYTKVSRYVNWIKEKTKLT
- K0.5-mut/K0.5-wt [1]: 4.4
- % of WT kcat/KM (Factor X, P00742): 86%
- KM (Factor X, P00742): 0.0945 µM
- kcat/KM (Factor X, P00742): 3.8e+07 M⁻¹ s⁻¹
- K0.5-mut/K0.5-wt [2]: 4.4
